Drawing on PMC3715468, “Structural and Functional Characterisation of TesA - A Novel Lysophospholipase A from Pseudomonas aeruginosa” (PLoS ONE, 2013), this text covers Km, kcat and kcat/Km for 1 substance.

Assay in all cases: purified protein
Type in all cases: biochemical, Pseudomonas aeruginosa

Data set [1] deals with CCCCCCCCCCCCCCCC(=O)OC[C@@H](O)COP(=O)([O-])OCC[N+](C)(C)C. As to conditions: 20 mM Tris-HCl pH 7.2, 37 °C, 0.25% (v/v) Triton X-100, 1.5 mM NaN3, 30 min.
Data set [2] has as its system CCCCCCCCCCCC(=O)OC[C@@H](O)COP(=O)([O-])OCC[N+](C)(C)C. Particulars: pH 7.2; 37.0 °C.
Data set [3] relates to CCCCCC(=O)OC[C@@H](O)COP(=O)([O-])OCC[N+](C)(C)C. As to conditions: pH 7.2; 37.0 °C.

What is called Km is the concentration of substrate that gives half-maximal velocity. As usually defined, the kcat is the number of substrate molecules converted per active site and unit of time at saturation. The term kcat/Km denotes the turnover number divided by the Michaelis constant. In the case of TesA (Pseudomonas aeruginosa PAO1), in data set [1], the Km amounted to 2040 ± 180 µM, the kcat was found to be 921 s⁻¹ and the kcat/Km amounted to 450000 M⁻¹ s⁻¹. For the same substance, in data set [2], the Km turned out to be 1780 ± 170 µM and the specificity constant (kcat/Km) was 1.1e+06 M⁻¹ s⁻¹. In data set [3], the Km was found to be 7220 ± 920 µM and the kcat/Km was 110000 M⁻¹ s⁻¹.
